Results published in patent US20090029924A1.

B1: RKKRT (peptide)
peptide: RKKRT
modifications: not checked
B2: RRKKRT (peptide)
peptide: RRKKRT
modifications: not checked
B3: RRRKKRT (peptide)
peptide: RRRKKRT
modifications: not checked
B4: … (peptide)
peptide: TPRERRRKAAV
modifications: not checked

molecular target: Recombinant human furin (human), P09958; experiment: furin, Pyr-RTKR-AMC cleavage
Sequence (P09958 108-714 limits assumed): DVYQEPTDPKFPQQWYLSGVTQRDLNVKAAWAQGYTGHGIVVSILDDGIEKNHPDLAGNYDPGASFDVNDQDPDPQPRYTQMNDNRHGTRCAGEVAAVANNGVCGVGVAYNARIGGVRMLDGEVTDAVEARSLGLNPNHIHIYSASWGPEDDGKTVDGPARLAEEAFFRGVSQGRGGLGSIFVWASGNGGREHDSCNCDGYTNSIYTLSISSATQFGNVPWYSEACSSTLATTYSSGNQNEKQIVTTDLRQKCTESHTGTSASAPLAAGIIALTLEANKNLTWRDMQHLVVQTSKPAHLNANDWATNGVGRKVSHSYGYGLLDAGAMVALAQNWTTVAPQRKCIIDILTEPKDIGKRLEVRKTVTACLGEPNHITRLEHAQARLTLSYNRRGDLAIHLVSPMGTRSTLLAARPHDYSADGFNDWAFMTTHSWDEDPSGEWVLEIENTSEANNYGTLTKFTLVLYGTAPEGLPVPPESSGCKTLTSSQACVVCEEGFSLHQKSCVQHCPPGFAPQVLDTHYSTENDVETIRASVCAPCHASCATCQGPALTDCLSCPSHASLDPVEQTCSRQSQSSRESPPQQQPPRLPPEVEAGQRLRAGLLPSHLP

Row | Binder | Ki [nM]
1 | B1 | 1000
2 | B2 | 32.5
3 | B3 | 17.6
4 | B4 | > 100
